The data set deals with FMRP (rat, UniProt Q80WE1 1-593). In words: EMSA; 150 mM KCl, tRNA; three shifted bands; Filter binding: 10 mM Tris pH 7.5, 50 mM KCl, 1 mM DTT, room temperature; REMSA: 20 mM HEPES pH 7.6, 150 mM KCl, 0.5 mM DTT, 5% glycerol, 50 ng/ul tRNA, room te.

B1: human MMP-9 wild-type probe (ssRNA)
RNA: GUUCUGGAGGAAAGGGAGGAGUGGAGGUGGGCUGGGCCCUCUCUUCUCACCUUUGUUUUUUGUUGGAGUGUUUCUAAU
Consider B1, for which the binding result is reported as “binds”.

For the origin of these results see publication PMC5538295.
